In test [1] the target is acidic patch mutant nucleosome (H2A E61A, E64A, D90, E92A) (Xenopus) (UniProt P06897). Briefly: other fluorescence titration.
Test [2] addresses recombinant nucleosome labelled with Oregon Green 488 on histone H4 Q27C (Xenopus) (UniProt P62799). The test is described as follows: other fluorescence titration.
In test [3] the target is acidic patch mutant nucleosome (H2A E61A, E64A, D90, E92A) (Xenopus) (UniProt P06897).

The term Kd denotes the equilibrium constant for the complex coming apart.

As for “Set8(153-352) (from UniProt Q9NQR1-2 153-352) (domain or fragment)”, the values for the Kd in test [1] and in test [2] were 1300 nM and 7.9 nM, respectively. Further, the histone methyltransferase activity on acidic patch mutant nucleosomes in test [3] is 5.4%. Consider “Set8(153-352) H347F (from UniProt Q9NQR1-2 153-352) (domain or fragment)”, for which the Kd in test [2] was found to be 4.5 nM. “Set8(153-352) R179A, K180A (from UniProt Q9NQR1-2 153-352) (domain or fragment)”: the fold decrease of nucleosome binding affinity against Set8(153-352) in test [2] was 2.5 fold. Take “Set8(153-352) R188A, R189A (from UniProt Q9NQR1-2 153-352) (domain or fragment)”: the Kd in test [2] amounted to 2500 nM. As for “Set8(175-352) (from UniProt Q9NQR1-2 175-352) (domain or fragment)”, the Kd in test [2] stood at 1800 nM. Turning to “full length Set8 (from UniProt Q9NQR1-2 1-352) (enzyme)”, the Kd in test [1] was 60 nM; in test [2] it was 5.3 nM.

(Values after paper PMC5549631.)
